Experimental data taken from the DeepSol protein solubility set.

Assay: soluble on expression in E. coli; label from the status in PepcDB or PDB records

Sequence | soluble on expression in E. coli
MSLKVKAINLYTYKEPFKSPISTPKVKLTHRESLFTEIVTYSGETYYGECNAFLTNWYDKETILTVVNRLRQWIPQVLHKDMTSFDSWLPYLNQMNDAPAARSMVVMAVYQMYNDLHDFEVQYGATVSGLTNSQIETLLETRPKRIKLKWSTSLIKDLETIRLLNFDCDIAIDANESLTKPSFLQLANVNTSDIIYIEEPFKILEDLNDIDMSIFPRIAIDEKALSIEKIQSIIQQYPIQVVVLKPFRLGGIDRMLNAMKILKEKNIRFVVGGMYEFGLSRYFTAMLAKEGSYPGDITPHGYYFSNDIVETSGILKGGMIYFTPPKVKRSLLNKVEGHHHHHH | not soluble
MSLKVTIKDIATICGVSAGTVDRALNNRTGISEKTREKILKTAKELNYRPDYTARSLVMGKTMTIGVVLFDLYNRSFAQLLNAIELKARELGYFIYITLSDKNPENELNCIEHLVNRKVDGIILFTVNKGEQFEANLSKWGIPIITIFNYVSEKWEYIGIQERQAMKEAVDYIASKRYKKFIYISPPLTYLGKNNIYTQEERLNGFYDGLKSNGITSKPLIIKNSEYIKELDNITFSQDGKVAIVCATDLYALEVMNYLKEKGFNIPEQVGVMGFDDIDMLKYITPRLTTVKYPIDEIGRRAIESMVNKINHGHFISTPLLNYQIIKGESIEGHHHHHH | soluble
MSLKVWITGAGGMMGSHLAEMLLAAGHDVYATYCRPTIDPSDLQFNGAEVDITDWCSVYDSIATFRPDAVFHLAAQSYPAVSWARPVETLTTNMVGTAIVFEALRRVRPHAKIIVAGSSAEYGFVDPSEVPINERRELRPLHPYGVSKAATDMLAYQYHKSYGMHTVVARIFNCTGPRKVGDALSDFVRRCTWLEHHPEQSAIRVGNLKTKRTIVDVRDLNRALMLMLDKGEAGADYNVGGSIAYEMGDVLKQVIAACKRDDIVPEVDPALLRPTDEKIIYGDCSKLAAITGWQQEICLTQTIADMFDYWRSKSESAEGHHHHHH | soluble
MSLKYNDNFQTILRHGVEKQVALLDADIFMENGQDDVELQMRQFRNLVNSKVDAIVVAMVNGKSAAEMMRLANEAKVPLVFVNRNPEPAKWPALTAFVGSDELESGTLQMEELARRAGYKGNVVILVGDPSNKSSVMRTEDVEKVVAKYPNMKVVQKKIGNWERSQAATIVIDWVKQGVDFSIVAANNDEMAIGAIMGLEKAGKNARDYLVGGIDGTPDGLKLMAEGKMAVSVFQDAVGQANGAVDAALSMARGETLASPVIWVPFKLITPENRQQFEEGHHHHHH | soluble
MSLKYYIGLACTGHENALAIVNPDGEIVFAEATERFLQNKRAVNTPPDDPLRIPRLLKQYCSDCDAIVVAKTWSREAPQKMRTDAAHILKALAGTDARTDRDWVARVAFHAGLGDKLIEPNYRLAGNGIERYCSLQGLEHSVRSYEHHLTHAAYACHTSPFDDAVCAVFDGYGEGVHSSYFHYRNGKVEPIRRARSAKGQYGSLASLGLYYGYTICALLGLDIVNGEEWKVMGLAPYGQLNPAFLDVLRRHIYVDGLDLVMDGNAAGTYRELQAFARRPGQSYESVADIAYTAQHYFSELMLEMLAGLRQLGLSDRLVLTGGCALNSTFNGEVIPRSGFAQLYVPPAPSDDGNAVGAALLAYAEDGGAMSRPAFHSPYLGSAIDDRELAPFLKNGAMLGQVPVTPGELCDYVAQELADGKVIGWIQGSAEFGPRSLGNRSILADPRRASMKERINAIVKFREGFRPFAPSILDEFGDRYFEDYSATPYMEKTLKIREAYREAIPAVCHVDHTGRLQTVRRDWNPRFHALLSAFHARTGTPVLLNTSLNVMGKPIVHSAADAFTVFLSTGLDLLVINDHVFSKREGHHHHHH | soluble
MSLLASLGGLVSCAAKVHFKEEGNAMNELIANHDFDFRQLVTAAEGQPVTDTFQIAKAFGKRHADVLRALKNCHCSEDFRRAHFCVSEKINNLGIFDKKQIYYRMDFSGFVMLVMGFNGAKADAVKEAYINAFNWMSAELRKYSESYEAERNAIMLEYMKEKDVASMSGRLLNRWGKIKKPQLLARIGRLEQHGQTVIPGLTNEGHHHHHH | not soluble
MSLLDFEKPLFEIRNKIESLKESQDKNDVDLQEEIDMLEASLERETKKIYTNLKPWDRVQIARLQERPTTLDYIPYIFDSFMELHGDRNFRDDPAMIGGIGFLNGRAVTVIGQQRGKDTKDNIYRNFGMAHPEGYRKALRLMKQAEKFNRPIFTFIDTKGAYPGKAAEERGQSESIATNLIEMASLKVPVIAIVIGEGGSGGALGIGIANKVLMLENSTYSVISPEGAAALLWKDSNLAKIAAETMKITAHDIKQLGIIDDVISEPLGGAHKDVEQQALAIKSAFVAQLDSLESLSRDEIANDRFEKFRNIGSYIEEGHHHHHH | not soluble
MSLLDIERVREQQRPLPISKIRAQQSHTSFQGVFEEIAGHKSEKTVYAILETLEKDGERLAKHRTAAELHAFKRSVRQCVSHLLESLKVETASSAASGQVRQYKLVKEIDKGLVELTNAVFDQSKSELDLLNKIGELQGLIIQLYLEGHHHHHH | soluble
MSLLEKINSSTCTLRFKNDWLKIFTCPVPSSDFLSFVGVATIDAPQHAVLSLLYDIESATEWVWKTREMRVLQELADDNEGRVVYQVVSAPWPVSDREIISRSTAYKDPETGEVFIKIESLPDFIPETSNCVRVRKLEGAWNILPLSENSCRVVFRLHIEPAGEIPSWLANIAVIDTPYHTLNNMRDMVKREKYKNPVGAPLKESTEGIIRNYNDFITELEHHHHHH | soluble
MSLLEQLDKNIAASGGLIVSCQPVPGSPLDKPEIVAAMALAAEQAGAVAVRIEGIDNLRMTRSLVSVPIIGIIKRDLDESPVRITPFLDDVDALAQAGAAIIAVDGTARQRPVAVEALLARIHHHHLLAMADCSSVDDGLACQRLGADIIGTTMSGYTTPDTPEEPDLPLVKALHDAGCRVIAEGRYNSPALAAEAIRYGAWAVTVGSAITRLEHICGWYNDALKKAAS | not soluble
MSLLFSNTYRIESNAPLADKLRPKNLDDFFGQESILGHDSLLRNAILNDKVGNMIFSGPPGVGKTTLIEIISSNTRSSLIKLNAVLSSIKELRTEIANAKERLRSSNRKTILFIDEVHRFTSVQQDALLPSIENGTITFIGATTENPFFAVNKALISRARIFSLLPLNKNDLKKIIDKVIKYYSCLKDSKVVEIKEEAMNHLIKFSGGDARNLINALELGISITKENKENLVVIDLAIAEDSIQKKNIVYDKNGQNHFDVISAFIKSIRGSDPDATLYWLANMVEAGEDPNFIFRRLLISACEDIGLADPNAIVVVQSCCDAFDRVGFPEGLFFLSQASLYLAISPKSNSTKSIFKAMEAIKATNVSLVPNHLKNNASNYLNPHNYQGKWLQQEYLPTDLQGIKFWKPKDSGWEKNKYEDLPKKQKSEGHHHHHH | not soluble
MSLLKMYADKRGLKDIKSNMVMREFEEVFEKFKDWTEKIKQKYPNPDEILNLEKEEKWDFSDLFGEFLGDYRTVKSYHEFDKDNPYLPSDEFNKYFAAFSQIQEEIRKEKAEKKALEVQEEDLSNEVRKEPQIFSWEYGEGIQANLDYIFHLIKDLYNCDNEQDRQKVLDKIKTAIRTNPEIQVNEDILNEFIEDLGKSFEKEKLEEVWKTEGKLRECLKDFCKKKEESNKKKIINDFLVKGVFLVEWVADKQLNTAKKKGEYSPSWSDTEKLIWKEKSTNLPTMTEKDEDGNFKWRKLITDISEAFKNEGHHHHHH | soluble
MSLLPSQSPAIFTVSRLNQTVRLLLEHEMGQVWISGEISNFTQPASGHWYFTLKDDTAQVRCAMFRNSSRRVTFRPQHGQQVLVRANITLYEPRGDYQIIVESMQPAGEGLLQQKYEQLKAKLQAEGLFDQQYKKPLPSPAHCVGVITSKTGAALHDILHVLKRRDPSLPVIIYPAAVQGDDAPGQIVRAIELANQRNECDVLIVGRGGGSLEDLWSFNDERVARAIFTSRIPVVSAVGHETDVTIADFVADLRAPTPSAAAEVVSRNQQELLRQVQSTRQRLEMAMDYYLANRTRRFTQIHHRLQQQHPQLRLARQQTMLERLQKRMSFALENQLKRTGQQQQRLTQRLNQQNPQPKIHRAQTRIQQLEYRLAETLRAQLSATRERFGNAVTHLEAVSPLSTLARGYSVTTATDGNVLKKVKQVKAGEMLTTRLEDGWIESEVKNIQPVKKSRKKVHEGHHHHHH | not soluble
MSLLVMKCSKCSAEAIYYAKYNGLYLCRDHFNEMIEGRVKKEIRKQVEFHGDDVTISVALSGGKDSSVTLFLLHKILGNRKNMKIKAFTVDEGIDGYRPSGLESAKRLCTSLGIDHETISFYDSYGLTLDSIVKTNPVKIPCAYCGPLRRKLINEMADKQDADYVALGLNLDDYSQSILMNVAKGDFDRFIRMSPQTDRKVGLVRRIAPLRTILEKEVVLYAVTNDIPFDSSWCPYYSRAQRNVFREVVNKLSEENPSTKFAILKFFDRVRENITTGHEEVKLKRCKICGAPTERDVCTACSSLQEVNEMMAEHEGHHHHHH | soluble
MSLMLKKNDIIQVAISDLSHEGAGVAKHDGFVFFVDNALPEEVIDMRVLKVNKNSGFGKVEAYHYLSSARNADVNLTYLRTGIADLGHLTYEDQLTFKKKQVQDSLYKIAGISDVTVESTIGMTEPLAYRNKAQVPVRRVNGQLETGFFRKHSHDLIPISDYYIQDKEIDRLINFTRDLLRRFDIKPYDETEQTGLLRNIVVRRGHYSGEMMLVLVTTRPKVFRVDQVIEKIVEAFPAVVSIIQNINDKNTNAIFGKDFKTLYGKDTITDSMLGNNYAISAQSFYQVNTVMAEKLYQTAIAFSDLSKDDIVIDAYSGIGTIGLSFAKTVKAVYGVEVIEAAVRDAQQNAALNGITNAYFVADTAEHAMATWAKDGIKPSVILVDPPRKGLTESFIQASVAMGPQKITYVSCNPATMARDIKRYQELGYKLAKVQPVDLFPQTHHVECVVLLIKEEGHHHHHH | soluble
MSLNARARALRHSRSGTIGLIVPDVNNAVFADMFSGVQMAASGHSTDVLLGQIDAPPRGTQQLSRLVSEGRVDGVLLQRREDFDDDMLAAVLEGVPAVTINSRVPGRVGSVILDDQKGGGIATEHLITLGHSRIAFISGTAIHDTAQRRKEGYLETLASAGLRSEAAWVVDAGWEADAGSAALNTLYRGANLGKPDGPTAVVVASVNAAVGALSTALRLGLRVPEDLSIVGINTTWVSDTVYPALTTVRLPLQRLGEVAADVLMEHLGGRALTDTVVTQPTPELLVRETTAPPTREGHHHHHH | soluble
MSLNDGRLEIFQEGKPGRRIDEDQVFAAVLDALTKPAEQRTVTVAFREIPPPITAANLDQLGITTLIGVGRSDFTGSAAYRVTNIQAGMRLLHGVLIAPGEEFSFNQTIGRIDRSNGFVEGYAIIQNRTQLEWGGGICQDSTTMFRAAFWAGLPITERWGHSFYISWYDRYAFGPYGDGPGMDATIFTGGPDLKFLNDTGGWLLIQTLVDTHRHLAEVRLYGPDTGRKVLLEGPIITNRTPPPEEPVYVASPDRPVGQPRQSDTARGGMDILFTRIVLGPDGKEIERRQFVTRFKPWPNIFEYNPADEGHHHHHH | soluble
MSLNDNNTILGFDVNLICDFFLNTERQGPGSPEVTLKALSFIDNLTNKSLIADLGCGTGGQTMILAQHVPGKITGIDFFPGFIERFNKNAEKLNLQNRVKGIVGSMDDLSFEKDSLDLIWSEGAIYNIGFERGLKEWRNYLKPGGYLAVSESVWFTDQRPAEIHDFWMSAYTEIDTVPNKVAQIQKAGYIPVATFILPENCWIEHYFAPQAKAEEIFRRKHAGSRIVEELITSNHHEAELYSKYKAYYGYAFFICKKGFSLREGHHHHHH | soluble
MSLNDRTTTHGETEPRSEQPGIRAAAGPGRWHDVELMAYKPDDAAPFRSVTRQVLFSDLRLGCEWRYFEVAEGGYSTLERHQHVHATMIHRGRGQCLVGDVISDVAVGDLVFIPPMTWHQFRANAGDVLGFLCLVNADRDRPQLPRPDELAVLRQNKAIASFIGAEAEGHHHHHH | soluble
